Results reported in US20160250325A1 (ISA PHARMACEUTICALS B V, published 2016).
Ends that are not written are not given here. * marks the point of attachment. X1 = (RS)‑2,3‑di(palmitoyloxy)propyl, CCCCCCCCCCCCCCCC(=O)OCC(C*)OC(=O)CCCCCCCCCCCCCCC

B1: U-Pam-12 (1-dodecadecyl-urea-Cys((RS)-2,3-di(palmitoyloxy)-propyl)-Ser-Lys-Lys-Lys-Lys-NH2) (peptide)
peptide: C(X1)SKKKK-NH2
modifications: not fully specified (N-terminus); printed as 1-dodecadecyl-urea-Cys((RS)-2,3-di(palmitoyloxy)-propyl)-Ser-Lys-Lys-Lys-Lys-NH2; also: epimer mixture at C-2 of dipalmitoyloxypropyl

Target: mouse TLR2 on a murine dendritic cell line (mouse, UniProt Q9QUN7 25-784)
Assay: cell-based or functional assay

mouse TLR2 on a murine dendritic cell line, sequence (Q9QUN7 25-784): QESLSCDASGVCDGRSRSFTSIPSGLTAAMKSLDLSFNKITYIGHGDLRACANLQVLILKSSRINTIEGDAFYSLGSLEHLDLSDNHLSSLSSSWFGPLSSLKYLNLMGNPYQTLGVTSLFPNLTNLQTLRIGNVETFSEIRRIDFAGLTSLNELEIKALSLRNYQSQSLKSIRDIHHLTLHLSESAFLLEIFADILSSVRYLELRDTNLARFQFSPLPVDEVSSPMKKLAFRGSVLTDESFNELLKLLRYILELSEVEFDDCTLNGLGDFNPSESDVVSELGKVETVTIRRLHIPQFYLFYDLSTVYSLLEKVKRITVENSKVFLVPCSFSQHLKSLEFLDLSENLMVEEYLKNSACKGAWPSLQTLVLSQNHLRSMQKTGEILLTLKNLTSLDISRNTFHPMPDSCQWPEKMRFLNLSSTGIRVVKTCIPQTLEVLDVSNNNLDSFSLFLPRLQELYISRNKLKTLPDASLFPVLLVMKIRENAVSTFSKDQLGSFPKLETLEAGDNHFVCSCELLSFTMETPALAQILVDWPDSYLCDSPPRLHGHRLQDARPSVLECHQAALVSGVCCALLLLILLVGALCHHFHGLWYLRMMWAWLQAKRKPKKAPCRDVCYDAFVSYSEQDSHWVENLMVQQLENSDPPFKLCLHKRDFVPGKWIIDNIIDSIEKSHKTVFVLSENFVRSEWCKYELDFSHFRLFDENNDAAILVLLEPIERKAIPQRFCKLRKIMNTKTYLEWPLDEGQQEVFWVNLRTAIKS

Binder | IL-12 in supernatant of a murine dendritic cell line after 24 h (sandwich ELISA); concentration needed for similar stimulation, against Pam3CysSK4 [fold] | IL-12 in supernatant of a murine dendritic cell line after 24 h (sandwich ELISA); maximal stimulation level against Pam3CysSK4 [fold]
{1‑tetradecyl‑urea}-C(X1)SKKKK-NH2 (also: epimer mixture at C-2 of dipalmitoyloxypropyl) [U-Pam-14 (1-tetradecyl-urea-Cys((RS)-2,3-di(palmitoyloxy)-propyl)-Ser-Lys-Lys-Lys-Lys-NH2)] | 100 | 2
B1 | 100 | 2
